In article PMC10397247:

Columns and labels:
[1] = molecular target: T1, 4H3112-bH; assay: two-hybrid library CCNG1;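 also: natural log of median RNA to DNA barcode read ratio; higher means stronger binding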
T1 chain: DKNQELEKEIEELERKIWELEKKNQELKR

[2] = molecular target: T2, 4H968-bH; assay: two-hybrid library CCNG1;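 also: natural log of median RNA to DNA barcode read ratio; higher means stronger binding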
T2 chain: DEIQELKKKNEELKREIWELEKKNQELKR

[3] = molecular target: T3, 4H797-bH; assay: two-hybrid library CCNG1;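 also: natural log of median RNA to DNA barcode read ratio; higher means stronger binding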
T3 chain: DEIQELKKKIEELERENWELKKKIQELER

[4] = molecular target: T4, 4H3427-bH; assay: two-hybrid library CCNG1;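 also: natural log of median RNA to DNA barcode read ratio; higher means stronger binding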
T4 chain: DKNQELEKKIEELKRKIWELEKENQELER

[5] = molecular target: T5, 4H346-bH; assay: two-hybrid library CCNG1;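 also: natural log of median RNA to DNA barcode read ratio; higher means stronger binding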
T5 chain: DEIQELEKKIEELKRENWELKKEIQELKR

[6] = molecular target: T6, 4H457-bH; assay: two-hybrid library CCNG1;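 also: natural log of median RNA to DNA barcode read ratio; higher means stronger binding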
T6 chain: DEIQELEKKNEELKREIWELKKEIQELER

[7] = molecular target: T7, 4H2673-bH; assay: two-hybrid library CCNG1
T7 chain: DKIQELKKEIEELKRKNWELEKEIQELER

[8] = molecular target: T8, 4H2586-bH; assay: two-hybrid library CCNG1
T8 chain: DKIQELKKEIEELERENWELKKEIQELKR

[9] = molecular target: T9, 4H683-bH; assay: two-hybrid library CCNG1
T9 chain: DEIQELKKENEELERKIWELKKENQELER

[10] = molecular target: T10, 4H575-bH; assay: two-hybrid library CCNG1
T10 chain: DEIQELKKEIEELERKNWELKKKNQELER

[11] = molecular target: T11, 4H754-bH; assay: two-hybrid library CCNG1
T11 chain: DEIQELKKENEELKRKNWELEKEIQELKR

[12] = molecular target: T12, 4H2627-bH; assay: two-hybrid library CCNG1
T12 chain: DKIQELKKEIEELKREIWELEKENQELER

[13] = molecular target: T13, 4H170-bH; assay: two-hybrid library CCNG1
T13 chain: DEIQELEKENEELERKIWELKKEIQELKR

[14] = molecular target: T14, 4H2702-bH; assay: two-hybrid library CCNG1
T14 chain: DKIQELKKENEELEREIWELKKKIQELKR

[15] = molecular target: T15, 4H953-bH; assay: two-hybrid library CCNG1
T15 chain: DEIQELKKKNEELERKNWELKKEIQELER

[16] = molecular target: T16, 4H3926-bH; assay: two-hybrid library CCNG1
T16 chain: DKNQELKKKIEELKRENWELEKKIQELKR

[17] = molecular target: T17, 4H1831-bH; assay: two-hybrid library CCNG1
T17 chain: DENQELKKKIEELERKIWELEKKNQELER

[18] = molecular target: T18, 4H780-bH; assay: two-hybrid library CCNG1
T18 chain: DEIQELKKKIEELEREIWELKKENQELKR

[19] = molecular target: T19, 4H4073-bH; assay: two-hybrid library CCNG1
T19 chain: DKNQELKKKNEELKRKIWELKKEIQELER

[20] = molecular target: T20, 4H855-bH; assay: two-hybrid library CCNG1
T20 chain: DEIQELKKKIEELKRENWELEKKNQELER

[21] = molecular target: T21, 4H3010-bH; assay: two-hybrid library CCNG1
T21 chain: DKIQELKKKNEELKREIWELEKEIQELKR

[22] = molecular target: T22, 4H918-bH; assay: two-hybrid library CCNG1
T22 chain: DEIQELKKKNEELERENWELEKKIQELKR

[23] = molecular target: T23, APC5383-AA; assay: two-hybrid library CCmax; settings: mean of both orientations
T23 chain: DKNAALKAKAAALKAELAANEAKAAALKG

[24] = molecular target: T24, 4H2447-AA; assay: two-hybrid library CCmax
T24 chain: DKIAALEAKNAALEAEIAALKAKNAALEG

[25] = molecular target: T25, APC9096-AA; assay: two-hybrid library CCmax; settings: mean of both orientations
T25 chain: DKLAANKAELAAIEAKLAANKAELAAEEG

[26] = molecular target: T26, APC1015-AA; assay: two-hybrid library CCmax; settings: mean of both orientations
T26 chain: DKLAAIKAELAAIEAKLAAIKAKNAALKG

[27] = molecular target: T27, APC4436-AA; assay: two-hybrid library CCmax; settings: mean of both orientations
T27 chain: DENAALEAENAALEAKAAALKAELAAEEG

[28] = molecular target: T28, APC9319-AA; assay: two-hybrid library CCmax; settings: mean of both orientations
T28 chain: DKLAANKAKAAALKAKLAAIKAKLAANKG

[29] = molecular target: T29, 4H733-AA; assay: two-hybrid library CCmax; settings: mean of both orientations
T29 chain: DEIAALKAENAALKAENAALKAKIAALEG

[30] = molecular target: T30, APC2405-AA; assay: two-hybrid library CCmax; settings: mean of both orientations
T30 chain: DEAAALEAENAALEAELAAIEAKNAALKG

[31] = molecular target: T31, APC4264-AA; assay: two-hybrid library CCmax; settings: mean of both orientations
T31 chain: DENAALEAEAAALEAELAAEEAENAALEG

[32] = molecular target: T32, APC1434-AA; assay: two-hybrid library CCmax; settings: mean of both orientations
T32 chain: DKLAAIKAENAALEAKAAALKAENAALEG

[33] = molecular target: T33, APC7099-AA; assay: two-hybrid library CCmax; settings: mean of both orientations
T33 chain: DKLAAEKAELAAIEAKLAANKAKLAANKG

[34] = molecular target: T34, APC8191-AA; assay: two-hybrid library CCmax; settings: mean of both orientations
T34 chain: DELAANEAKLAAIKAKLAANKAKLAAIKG

[35] = molecular target: T35, 4H3330-AA; assay: two-hybrid library CCmax; settings: mean of both orientations
T35 chain: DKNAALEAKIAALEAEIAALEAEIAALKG

[36] = molecular target: T36, APC8910-AA; assay: two-hybrid library CCmax; settings: mean of both orientations
T36 chain: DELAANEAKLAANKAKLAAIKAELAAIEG

[37] = molecular target: T37, 4H716-AA; assay: two-hybrid library CCmax; settings: mean of both orientations
T37 chain: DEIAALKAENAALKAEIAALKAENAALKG

[38] = molecular target: T38, APC2237-AA; assay: two-hybrid library CCmax; settings: mean of both orientations
T38 chain: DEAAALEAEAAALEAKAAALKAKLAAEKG

[39] = molecular target: T39, APC6108-AA; assay: two-hybrid library CCmax; settings: mean of both orientations
T39 chain: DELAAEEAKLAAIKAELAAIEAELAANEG

[40] = molecular target: T40, APC4011-AA; assay: two-hybrid library CCmax; settings: mean of both orientations
T40 chain: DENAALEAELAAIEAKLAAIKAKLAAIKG

[41] = molecular target: T41, APC232-AA; assay: two-hybrid library CCmax; settings: mean of both orientations
T41 chain: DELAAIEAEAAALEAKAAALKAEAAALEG

[42] = molecular target: T42, 4H807-AA; assay: two-hybrid library CCmax; settings: mean of both orientations
T42 chain: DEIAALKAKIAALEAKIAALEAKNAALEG

[43] = molecular target: T43, 4H2458-AA; assay: two-hybrid library CCmax; settings: mean of both orientations
T43 chain: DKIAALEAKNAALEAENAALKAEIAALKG

[44] = molecular target: T44, APC3645-AA; assay: two-hybrid library CCmax; settings: mean of both orientations
T44 chain: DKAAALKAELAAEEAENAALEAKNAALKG

[45] = molecular target: T45, 4H492-bN; assay: two-hybrid library CCNG1
T45 chain: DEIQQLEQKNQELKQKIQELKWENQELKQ

[46] = molecular target: T46, 4H741-bN; assay: two-hybrid library CCNG1
T46 chain: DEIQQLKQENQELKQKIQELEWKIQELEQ

[47] = molecular target: T47, 4H796-bA; assay: two-hybrid library CCNG1
T47 chain: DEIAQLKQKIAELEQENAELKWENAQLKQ

[48] = molecular target: T48, P1A-bS; assay: two-hybrid library CCNG1
T48 chain: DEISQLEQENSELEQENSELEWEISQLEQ

[49] = molecular target: T49, P5A-bS; assay: two-hybrid library CCNG1
T49 chain: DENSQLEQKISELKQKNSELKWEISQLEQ

[50] = molecular target: T50, P2A-bS; assay: two-hybrid library CCNG1
T50 chain: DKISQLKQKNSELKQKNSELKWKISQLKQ

[51] = molecular target: T51, P9A-bS; assay: two-hybrid library CCNG1
T51 chain: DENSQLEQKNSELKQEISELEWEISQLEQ

[52] = molecular target: T52, P7A-bS; assay: two-hybrid library CCNG1
T52 chain: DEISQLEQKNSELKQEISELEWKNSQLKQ

[53] = molecular target: T53, P3A-bS; assay: two-hybrid library CCNG1
T53 chain: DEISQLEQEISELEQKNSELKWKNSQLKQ

[54] = molecular target: T54, P8A-bS; assay: two-hybrid library CCNG1
T54 chain: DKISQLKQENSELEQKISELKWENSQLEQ

[55] = molecular target: T55, P4A-bS; assay: two-hybrid library CCNG1
T55 chain: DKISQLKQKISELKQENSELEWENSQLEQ

[56] = molecular target: T56, P6A-bS; assay: two-hybrid library CCNG1
T56 chain: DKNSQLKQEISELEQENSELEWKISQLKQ

For DEIQELEKENEELERKIWELKKEIQELKR [4H170-bH], the interaction score [1] was 0.343, the interaction score [2] was 1.47 and the interaction score [3] was 0.264. The interaction score [4] was 0.596, the interaction score [5] was -0.205 and the interaction score [6] was 1.82. The interaction score [7] was -0.0221, the interaction score [8] was -1.02 and the interaction score [9] was -0.173. For the same binder, the interaction score [10] was -1.59, the interaction score [11] was 1.02 and the interaction score [12] was 0.774. The interaction score [13] was 0.761, the interaction score [14] was 1.84 and the interaction score [15] was 0.0231. For the same binder, the interaction score [16] was 0.549, the interaction score [17] was -0.0127 and the interaction score [18] was -0.492. It also gave an interaction score [19] of 1.14, an interaction score [20] of -0.762 and an interaction score [21] of 2.38. For the same binder, the interaction score [22] was 0.183.

DKIAALEAKNAALEAEIAALKAKNAALEG [4H2447-AA] was tested, and the interaction score [23] was -1.8, the interaction score [24] was 1.72 and the interaction score [25] was -1.78. It also gave an interaction score [26] of -2.05, an interaction score [27] of -1.79 and an interaction score [28] of -1.75. It also gave an interaction score [29] of -1.83, an interaction score [30] of -1.12 and an interaction score [31] of -1.6. It also gave an interaction score [32] of -1.56, an interaction score [33] of -1.5 and an interaction score [34] of -1.38. It also gave an interaction score [35] of -0.798, an interaction score [36] of -1.68 and an interaction score [37] of -1.36. For the same binder, the interaction score [38] was -1.38, the interaction score [39] was -1.28 and the interaction score [40] was -0.716. The interaction score [41] was -1.82, the interaction score [42] was -1.69 and the interaction score [43] was -1.42. For the same binder, the interaction score [44] was -1.7.

Work on DEIQQLEQKNQELKQKIQELKWENQELKQ [4H492-bN] yielded an interaction score [45] of -0.118, an interaction score [46] of -0.326 and an interaction score [47] of 0.0979. The interaction score [48] was -1.07.

DEISQLEQENSELEQENSELEWEISQLEQ [P1A-bS] gave an interaction score [49] of -0.939, an interaction score [50] of 1.9 and an interaction score [48] of -0.982. The interaction score [51] was -1.08, the interaction score [52] was -1.96 and the interaction score [53] was -0.598. For the same binder, the interaction score [54] was -0.899, the interaction score [55] was -0.182 and the interaction score [56] was 0.0466.
